Patent US20140161732A1 (published 2014)
Values belong to the binder of their own block, whether it stands above or below them. Bridge positions count the residues as written; N and C are the ends.

Biological target: KDR on human umbilical vein endothelial cells (HUVECs) (human, UniProt P35968 20-1356)
Test: cell-based or functional assay

Chain of KDR on human umbilical vein endothelial cells (HUVECs) (P35968 20-1356): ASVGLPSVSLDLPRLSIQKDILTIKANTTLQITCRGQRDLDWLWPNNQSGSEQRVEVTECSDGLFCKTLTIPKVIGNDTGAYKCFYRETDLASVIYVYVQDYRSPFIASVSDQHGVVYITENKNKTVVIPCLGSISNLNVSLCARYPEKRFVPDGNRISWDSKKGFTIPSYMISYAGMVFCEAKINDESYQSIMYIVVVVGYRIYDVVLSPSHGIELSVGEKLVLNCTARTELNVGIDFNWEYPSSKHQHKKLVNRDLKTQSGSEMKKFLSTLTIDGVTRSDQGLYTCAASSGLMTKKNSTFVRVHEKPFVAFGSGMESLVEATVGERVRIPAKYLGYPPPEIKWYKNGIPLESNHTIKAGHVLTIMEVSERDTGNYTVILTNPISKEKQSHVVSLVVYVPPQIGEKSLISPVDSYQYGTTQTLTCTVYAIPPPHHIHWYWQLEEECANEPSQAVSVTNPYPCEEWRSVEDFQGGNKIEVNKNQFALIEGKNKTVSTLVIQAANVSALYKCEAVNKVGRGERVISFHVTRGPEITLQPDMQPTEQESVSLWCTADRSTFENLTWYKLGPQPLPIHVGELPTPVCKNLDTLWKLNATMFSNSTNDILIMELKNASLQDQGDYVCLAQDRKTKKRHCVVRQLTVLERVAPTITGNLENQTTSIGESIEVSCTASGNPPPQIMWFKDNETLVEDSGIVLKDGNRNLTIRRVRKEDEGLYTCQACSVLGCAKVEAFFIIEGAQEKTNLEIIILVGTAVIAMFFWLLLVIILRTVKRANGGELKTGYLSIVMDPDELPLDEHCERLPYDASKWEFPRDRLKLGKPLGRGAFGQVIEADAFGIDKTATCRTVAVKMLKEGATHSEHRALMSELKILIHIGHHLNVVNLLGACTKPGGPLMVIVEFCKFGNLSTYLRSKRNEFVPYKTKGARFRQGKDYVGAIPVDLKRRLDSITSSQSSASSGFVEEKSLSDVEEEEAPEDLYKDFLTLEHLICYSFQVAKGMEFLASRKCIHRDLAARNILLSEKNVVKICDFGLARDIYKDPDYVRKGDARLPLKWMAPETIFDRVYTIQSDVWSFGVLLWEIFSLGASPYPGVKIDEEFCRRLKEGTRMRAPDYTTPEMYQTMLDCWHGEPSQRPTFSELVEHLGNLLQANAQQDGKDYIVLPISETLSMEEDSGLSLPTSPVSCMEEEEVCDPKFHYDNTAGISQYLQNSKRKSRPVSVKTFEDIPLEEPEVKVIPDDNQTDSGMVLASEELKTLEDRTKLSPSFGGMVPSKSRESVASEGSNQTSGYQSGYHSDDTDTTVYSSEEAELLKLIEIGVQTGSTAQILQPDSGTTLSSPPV

VEGF-induced KDR phosphorylation in HUVECs (immunoblot): ≥ 50 % inhibition at 10 µM
B1: SEQ ID NO:294 (peptide)
peptide: Ac-GDSRVCWEDSWGGEVCFRYDPGGGK-NH2
modifications: disulfide 6-16 (inferred); also: fluorescein on C-terminal Lys in anisotropy assay only

VEGF-induced KDR phosphorylation in HUVECs (immunoblot): ≥ 50 % inhibition at 10 µM
B2: SEQ ID NO:269 (peptide)
peptide: Ac-AGWIECYHPDGICYHFGTGGGK-NH2
modifications: disulfide 6-13 (inferred); also: fluorescein on C-terminal Lys in anisotropy assay only
